Test results: US20260250410A1 (SICHUAN HUIYU PHARMACEUTICAL, published 2026)

What was measured:
CynoCDCP1 = biological target: T1, CynoCDCP1 (Macaca fascicularis, UniProt A0A2K5VLA8 30-667); test: SPR (Caterra), antigen immobilized
T1 construct: extracellular domain; also called Macaca fascicularis CDCP1; monkey CDCP1; not shown: Fc or his tag
T1 sequence: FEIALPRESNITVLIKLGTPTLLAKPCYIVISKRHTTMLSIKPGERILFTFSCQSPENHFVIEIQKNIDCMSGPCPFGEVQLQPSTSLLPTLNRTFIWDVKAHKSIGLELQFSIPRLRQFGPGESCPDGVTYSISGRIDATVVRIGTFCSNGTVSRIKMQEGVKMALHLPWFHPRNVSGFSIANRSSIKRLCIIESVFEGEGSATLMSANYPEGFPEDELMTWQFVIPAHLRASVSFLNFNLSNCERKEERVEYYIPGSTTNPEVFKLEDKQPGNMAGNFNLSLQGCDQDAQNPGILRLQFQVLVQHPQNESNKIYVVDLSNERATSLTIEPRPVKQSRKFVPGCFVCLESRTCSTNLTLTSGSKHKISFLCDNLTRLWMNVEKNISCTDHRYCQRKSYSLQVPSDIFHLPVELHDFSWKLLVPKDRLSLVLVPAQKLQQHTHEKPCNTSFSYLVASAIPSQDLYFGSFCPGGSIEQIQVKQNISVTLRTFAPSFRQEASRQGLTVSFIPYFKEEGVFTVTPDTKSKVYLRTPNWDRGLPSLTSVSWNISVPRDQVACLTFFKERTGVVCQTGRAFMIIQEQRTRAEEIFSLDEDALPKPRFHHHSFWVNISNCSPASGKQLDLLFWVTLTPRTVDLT
Protocol: (§1) The humanized anti-CDCP1 antibodies obtained from Example 11 were subjected to gene cloning, constructed into pTT5 expression vector for a small amount of expression in CHO cells (Expi-CHOS: Gibco A29127), and purified with an Fc affinity column (AT Protein A Diamond Plus. No. AA402312). Antibody purity was analyzed by HPLC and determined by Nanodrop. High-throughput affinity assay was carried out for a small amount of antibodies by Caterra.
(§2) Further, Partial anti-CDCP1 humanized antibodies were selected for expression, and then the affinity of the antibodies to the antigens Hu-CDCP1-A, Hu-CDCP1-B, Cyno-CDCP1, and Ms-CDCP1 was detected according to the above affinity detection method.

MsCDCP1 = biological target: T2, MsCDCP1 (mouse, UniProt Q5U462 30-666); test: SPR (Caterra), antigen immobilized
T2 construct: extracellular domain; also called mouse CDCP1; not shown: Fc or his tag
T2 sequence (looked up): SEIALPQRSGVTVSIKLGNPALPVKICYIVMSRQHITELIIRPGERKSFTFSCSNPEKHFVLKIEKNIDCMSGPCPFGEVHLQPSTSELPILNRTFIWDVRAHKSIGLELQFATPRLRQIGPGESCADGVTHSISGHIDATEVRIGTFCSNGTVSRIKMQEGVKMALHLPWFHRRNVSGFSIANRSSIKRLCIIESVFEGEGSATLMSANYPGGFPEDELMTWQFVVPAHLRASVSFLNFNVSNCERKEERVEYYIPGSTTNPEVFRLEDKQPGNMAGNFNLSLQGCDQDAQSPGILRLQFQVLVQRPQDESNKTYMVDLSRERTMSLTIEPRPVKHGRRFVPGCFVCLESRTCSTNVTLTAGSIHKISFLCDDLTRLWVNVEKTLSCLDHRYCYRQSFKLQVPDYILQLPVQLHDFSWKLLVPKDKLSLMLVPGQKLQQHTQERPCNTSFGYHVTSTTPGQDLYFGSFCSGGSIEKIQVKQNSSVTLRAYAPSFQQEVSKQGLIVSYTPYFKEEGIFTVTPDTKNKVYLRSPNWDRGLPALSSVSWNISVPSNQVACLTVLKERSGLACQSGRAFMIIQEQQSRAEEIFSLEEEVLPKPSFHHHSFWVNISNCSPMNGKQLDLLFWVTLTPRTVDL
Protocol: as §1, §2

[1] = biological target: T3, human CDCP1 on tumor cells (human, UniProt Q9H5V8 30-836); test: flow cytometry, PC3 cells
T3 construct: whole, on cells; cell line is named under assay or readout
T3 sequence (looked up): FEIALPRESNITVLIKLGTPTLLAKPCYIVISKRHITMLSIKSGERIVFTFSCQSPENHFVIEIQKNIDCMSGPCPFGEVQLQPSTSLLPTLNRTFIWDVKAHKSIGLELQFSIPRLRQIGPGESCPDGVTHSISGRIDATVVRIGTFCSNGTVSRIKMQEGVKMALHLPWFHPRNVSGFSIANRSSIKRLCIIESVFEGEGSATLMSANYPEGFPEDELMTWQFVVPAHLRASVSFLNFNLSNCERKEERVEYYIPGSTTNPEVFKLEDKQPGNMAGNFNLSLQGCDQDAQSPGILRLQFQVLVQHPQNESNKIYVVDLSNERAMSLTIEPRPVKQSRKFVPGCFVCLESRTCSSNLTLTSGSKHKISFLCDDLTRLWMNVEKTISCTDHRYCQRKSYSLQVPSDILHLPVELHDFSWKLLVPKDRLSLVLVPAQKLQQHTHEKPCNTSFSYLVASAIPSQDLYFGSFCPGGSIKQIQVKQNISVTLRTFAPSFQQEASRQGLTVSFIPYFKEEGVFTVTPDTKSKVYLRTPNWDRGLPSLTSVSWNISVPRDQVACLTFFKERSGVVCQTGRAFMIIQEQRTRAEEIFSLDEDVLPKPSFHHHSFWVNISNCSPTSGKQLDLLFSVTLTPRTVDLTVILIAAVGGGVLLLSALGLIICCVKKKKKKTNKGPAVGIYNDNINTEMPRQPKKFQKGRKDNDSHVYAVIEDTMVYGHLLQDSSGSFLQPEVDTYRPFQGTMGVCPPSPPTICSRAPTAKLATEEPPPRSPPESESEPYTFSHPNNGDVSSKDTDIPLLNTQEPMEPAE
Protocol: Flow cytometry was used to detect the binding capacity of antibody to tumor cells. […] 2.0×10⁴ tumor cells were added per well, respectively, and 50 μL (PBS+2% FBS) were added, and after blocking at room temperature with an Fe blocker (Human TruStain FcX™, Biolegend, 422302) for 10 mins, an anti-CDCP1 murine monoclonal antibody at a final concentration of 200 nM was added. The obtained mixture was subjected to a 3-fold serial dilution across 8 concentration points, and incubated at 4° C. for 30 mins, and then incubated with a secondary antibody (PE anti-human IgG Fc Antibody, Biolegend, 410708), detection was performed using a flow cytometer.

Binder	Kd (CynoCDCP1) [nM]	Kd (MsCDCP1) [nM]	binding result (MsCDCP1)	EC50 [1] [nM]
1CP-124 (antibody, human IgG1, kappa, V domains shown, humanized 3C11, human IgG1 kappa) VH: QVQLVQSGAEVKKPGASVKVSCKASGYNFISYWLHWVRQAPGQGLEWMGGIYPGNTDTTYNQKFKGRVTMTRDTSTSTVYMELSSLRSEDTAVYYCIRYDYDRGMDYWGQGTLVTVSS VL: DIQMTQSPSSLSASVGDRVTITCRASEDIYYRLAWYQQKPGKAPKLLISGATALETGVPSRFSGSGSGKDYTFTISSLQPEDIATYYCQHYWNIPWTFGQGTKVEIKR	24.2	274		
1CP-129 (antibody, human IgG1, kappa, V domains shown, humanized 3C11, human IgG1 kappa) VH: QVQLVQSGAEVKKPGASVKVSCKASGYNFISYWLHWVRQAPGQGLEWMGGIYPGNTDTTYNQKFKGRVTMTADTSTSTVYMELSSLRSEDTAVYYCIRYDYDRGMDYWGQGTLVTVSS VL: DIQMTQSPSSLSASVGDRVTITCRASEDIYYRLAWYQQKPGKAPKLLISGATALETGVPSRFSGSGSGKDYTLTISSLQPEDIATYYCQHYWNIPWTFGQGTKVEIKR	53.8		no binding (tested: 150 nM highest concentration)	
1CP-125 (antibody, human IgG1, kappa, V domains shown, humanized 3C11, human IgG1 kappa) VH: QVQLVQSGAEVKKPGASVKVSCKASGYNFISYWLHWVRQAPGQGLEWMGGIYPGNTDTTYNQKFKGRVTMTADTSTSTVYMELSSLRSEDTAVYYCIRYDYDRGMDYWGQGTLVTVSS VL: DIQMTQSPSSLSASVGDRVTITCRASEDIYYRLAWYQQKPGKAPKLLISGATALETGVPSRFSGSGSGKDYTFTISSLQPEDIATYYCQHYWNIPWTFGQGTKVEIKR	2.27		no binding (tested: 150 nM highest concentration)	
1CP-128 (antibody, human IgG1, kappa, V domains shown, humanized 3C11, human IgG1 kappa) VH: QVQLVQSGAEVKKPGASVKVSCKASGYNFISYWLHWVRQAPGQGLEWMGGIYPGNTDTTYNQKFKGRVTMTRDTSTSTVYMELSSLRSEDTAVYYCIRYDYDRGMDYWGQGTLVTVSS VL: DIQMTQSPSSLSASVGDRVTITCRASEDIYYRLAWYQQKPGKAPKLLISGATALETGVPSRFSGSGSGKDYTLTISSLQPEDIATYYCQHYWNIPWTFGQGTKVEIKR	47.5		no binding (tested: 150 nM highest concentration)	
10D2 (antibody, V domains shown, murine hybridoma mAb) VH: EVQLQQSGPELKKPGETVKISCKASGYTFTDYSMHWVKQAPGKGLKWMGWINTETGQPTYADDFKGRFAFSLETSASSAYLQINNLKNEDTATYFCTRTFYYDYVGDYWGQGTTVTVSS VL: DIVMTQSHKFMSTSVGDRVSITCKASQDVSTAVAWYRQKPGQSPKLLIYWASTRHTGVPDRLTGSGSGTDFALTINSVQAEDLALYYCQQHSSTPYTFGGGTKLEIK				2.54
14A10C5 (antibody, V domains shown, murine hybridoma mAb; also called 14A10CS) VH: EVKLVESGPGILQPSQTLSLTCSFSGFSLSTSGMGVSWIRQPSGKGLEWLAHIYWDDEKRYNPSLKSRLTISKDTSSNQVFLKITSVDTADTATYYCAREGSANWEAMDYWGQGTTVTVSS VL: DIVMTQAALSLPVSLGDQASISCRSSQNIVYTNGITYLEWYLQKPGQSPKLLIYKVSNRFSGVPDRFSGSGSATDFTLKISRVEAEDLGVYYCFQSSHVPWTFGGGTKLEIK				0.1
1CP-117 (antibody, human IgG1, kappa, V domains shown, humanized 8E5, human IgG1 kappa) VH: QVQLVQSGSELKKPGASVKVSCKASGYTLTDFSMHWVRQAPGQGLEWMGWINTETGAPTYADDFKGRFVLSLDTSVSTAYLQISSLKAEDTAVYYCSRGRDYDPHFDYWGQGTLVTVSS VL: EIVLTQSPATLSLSPGERATLSCRASQSISDFLHWYQQKPGQSPRLLIKYASQSISGIPARFSGSGSGSDFTLTISSVEPEDFAVYYCQSAHSFPYTFGQGTKLEIKR	1.84	212		
1CP-121 (antibody, human IgG1, kappa, V domains shown, humanized 8E5, human IgG1 kappa) VH: QVQLVQSGSELKKPGASVKVSCKASGYTLTDFSMHWVRQAPGQGLEWMGWINTETGAPTYADDFKGRFVLSLDTSVSTAYLQISSLKAEDTAVYYCSRGRDYDPHFDYWGQGTLVTVSS VL: EIVLTQSPATLSLSPGERATLSCRASQSISDFLHWYQQKSGQSPRLLIKYASQSISGIPARFSGSGSGSDFTLTISSVEPEDFAVYYCQSAHSFPYTFGQGTKLEIKR	1.51	141		
1CP-152 (antibody, human IgG1, kappa, V domains shown, humanized 8C9, human IgG1 kappa) VH: EVQLVESGGGLVQPGRSLRLSCTTSGLTFTHYHMSWVRQAPGKGLEWVAIIRNKAYGYTTDYSASVRGRFTISRDDSKSILYLQMNSLKTEDTAVYYCVREGGYGYDGTFAYWGQGTLVTVSS VL: DIQMTQSPSSLSASVGDRVTITCRASESVDNYGISFMNWFQQKPGQAPKLLIYAASNQGSGVPSRFSGSGSGTDFTLTISSMQPEDFATYYCQQSKEVPRTFGGGTKVEIKR	2.9	745		
1CP-157 (antibody, human IgG1, kappa, V domains shown, humanized 8C9, human IgG1 kappa) VH: EVQLVESGGGLVQPGRSLRLSCTTSGLTFTHYHMSWVRQAPGKGPEWVAIIRNKAYGYTTDYSASVRGRFTISRDDSKSILYLQMNSLKTEDTAVYYCVREGGYGYDGTFAYWGQGTLVTVSS VL: DIQMTQSPSSLSASVGDRVTITCRASESVDNYGISFMNWFQQKPGQPPKLLIYAASNQGSGVPSRFSGSGSGTDFTLTISSMQPEDFATYYCQQSKEVPRTFGGGTKVEIKR	2.6		no binding (tested: 150 nM highest concentration)	
